Read-outs that look alike come from different tables or passages of the source.
Tests used:
[1] = target: Cardiac ryanodine receptor (RyR2) in rat ventricular myocytes (rat (endogenous in ventricular myocytes)) (UniProt B0LPN4); test: FRET or BRET
[2] = target: Cardiac ryanodine receptor (RyR2) in rat ventricular myocytes (rat (endogenous in ventricular myocytes)) (UniProt B0LPN4); test: FRET or BRET; remark: listed apart in the source
[3] = target: Cardiac ryanodine receptor (RyR2) in rat ventricular myocytes (rat (endogenous in ventricular myocytes), UniProt B0LPN4 1-4955); test: other fluorescence titration
Chain of Cardiac ryanodine receptor (RyR2) in rat ventricular myocytes (B0LPN4 whole entry): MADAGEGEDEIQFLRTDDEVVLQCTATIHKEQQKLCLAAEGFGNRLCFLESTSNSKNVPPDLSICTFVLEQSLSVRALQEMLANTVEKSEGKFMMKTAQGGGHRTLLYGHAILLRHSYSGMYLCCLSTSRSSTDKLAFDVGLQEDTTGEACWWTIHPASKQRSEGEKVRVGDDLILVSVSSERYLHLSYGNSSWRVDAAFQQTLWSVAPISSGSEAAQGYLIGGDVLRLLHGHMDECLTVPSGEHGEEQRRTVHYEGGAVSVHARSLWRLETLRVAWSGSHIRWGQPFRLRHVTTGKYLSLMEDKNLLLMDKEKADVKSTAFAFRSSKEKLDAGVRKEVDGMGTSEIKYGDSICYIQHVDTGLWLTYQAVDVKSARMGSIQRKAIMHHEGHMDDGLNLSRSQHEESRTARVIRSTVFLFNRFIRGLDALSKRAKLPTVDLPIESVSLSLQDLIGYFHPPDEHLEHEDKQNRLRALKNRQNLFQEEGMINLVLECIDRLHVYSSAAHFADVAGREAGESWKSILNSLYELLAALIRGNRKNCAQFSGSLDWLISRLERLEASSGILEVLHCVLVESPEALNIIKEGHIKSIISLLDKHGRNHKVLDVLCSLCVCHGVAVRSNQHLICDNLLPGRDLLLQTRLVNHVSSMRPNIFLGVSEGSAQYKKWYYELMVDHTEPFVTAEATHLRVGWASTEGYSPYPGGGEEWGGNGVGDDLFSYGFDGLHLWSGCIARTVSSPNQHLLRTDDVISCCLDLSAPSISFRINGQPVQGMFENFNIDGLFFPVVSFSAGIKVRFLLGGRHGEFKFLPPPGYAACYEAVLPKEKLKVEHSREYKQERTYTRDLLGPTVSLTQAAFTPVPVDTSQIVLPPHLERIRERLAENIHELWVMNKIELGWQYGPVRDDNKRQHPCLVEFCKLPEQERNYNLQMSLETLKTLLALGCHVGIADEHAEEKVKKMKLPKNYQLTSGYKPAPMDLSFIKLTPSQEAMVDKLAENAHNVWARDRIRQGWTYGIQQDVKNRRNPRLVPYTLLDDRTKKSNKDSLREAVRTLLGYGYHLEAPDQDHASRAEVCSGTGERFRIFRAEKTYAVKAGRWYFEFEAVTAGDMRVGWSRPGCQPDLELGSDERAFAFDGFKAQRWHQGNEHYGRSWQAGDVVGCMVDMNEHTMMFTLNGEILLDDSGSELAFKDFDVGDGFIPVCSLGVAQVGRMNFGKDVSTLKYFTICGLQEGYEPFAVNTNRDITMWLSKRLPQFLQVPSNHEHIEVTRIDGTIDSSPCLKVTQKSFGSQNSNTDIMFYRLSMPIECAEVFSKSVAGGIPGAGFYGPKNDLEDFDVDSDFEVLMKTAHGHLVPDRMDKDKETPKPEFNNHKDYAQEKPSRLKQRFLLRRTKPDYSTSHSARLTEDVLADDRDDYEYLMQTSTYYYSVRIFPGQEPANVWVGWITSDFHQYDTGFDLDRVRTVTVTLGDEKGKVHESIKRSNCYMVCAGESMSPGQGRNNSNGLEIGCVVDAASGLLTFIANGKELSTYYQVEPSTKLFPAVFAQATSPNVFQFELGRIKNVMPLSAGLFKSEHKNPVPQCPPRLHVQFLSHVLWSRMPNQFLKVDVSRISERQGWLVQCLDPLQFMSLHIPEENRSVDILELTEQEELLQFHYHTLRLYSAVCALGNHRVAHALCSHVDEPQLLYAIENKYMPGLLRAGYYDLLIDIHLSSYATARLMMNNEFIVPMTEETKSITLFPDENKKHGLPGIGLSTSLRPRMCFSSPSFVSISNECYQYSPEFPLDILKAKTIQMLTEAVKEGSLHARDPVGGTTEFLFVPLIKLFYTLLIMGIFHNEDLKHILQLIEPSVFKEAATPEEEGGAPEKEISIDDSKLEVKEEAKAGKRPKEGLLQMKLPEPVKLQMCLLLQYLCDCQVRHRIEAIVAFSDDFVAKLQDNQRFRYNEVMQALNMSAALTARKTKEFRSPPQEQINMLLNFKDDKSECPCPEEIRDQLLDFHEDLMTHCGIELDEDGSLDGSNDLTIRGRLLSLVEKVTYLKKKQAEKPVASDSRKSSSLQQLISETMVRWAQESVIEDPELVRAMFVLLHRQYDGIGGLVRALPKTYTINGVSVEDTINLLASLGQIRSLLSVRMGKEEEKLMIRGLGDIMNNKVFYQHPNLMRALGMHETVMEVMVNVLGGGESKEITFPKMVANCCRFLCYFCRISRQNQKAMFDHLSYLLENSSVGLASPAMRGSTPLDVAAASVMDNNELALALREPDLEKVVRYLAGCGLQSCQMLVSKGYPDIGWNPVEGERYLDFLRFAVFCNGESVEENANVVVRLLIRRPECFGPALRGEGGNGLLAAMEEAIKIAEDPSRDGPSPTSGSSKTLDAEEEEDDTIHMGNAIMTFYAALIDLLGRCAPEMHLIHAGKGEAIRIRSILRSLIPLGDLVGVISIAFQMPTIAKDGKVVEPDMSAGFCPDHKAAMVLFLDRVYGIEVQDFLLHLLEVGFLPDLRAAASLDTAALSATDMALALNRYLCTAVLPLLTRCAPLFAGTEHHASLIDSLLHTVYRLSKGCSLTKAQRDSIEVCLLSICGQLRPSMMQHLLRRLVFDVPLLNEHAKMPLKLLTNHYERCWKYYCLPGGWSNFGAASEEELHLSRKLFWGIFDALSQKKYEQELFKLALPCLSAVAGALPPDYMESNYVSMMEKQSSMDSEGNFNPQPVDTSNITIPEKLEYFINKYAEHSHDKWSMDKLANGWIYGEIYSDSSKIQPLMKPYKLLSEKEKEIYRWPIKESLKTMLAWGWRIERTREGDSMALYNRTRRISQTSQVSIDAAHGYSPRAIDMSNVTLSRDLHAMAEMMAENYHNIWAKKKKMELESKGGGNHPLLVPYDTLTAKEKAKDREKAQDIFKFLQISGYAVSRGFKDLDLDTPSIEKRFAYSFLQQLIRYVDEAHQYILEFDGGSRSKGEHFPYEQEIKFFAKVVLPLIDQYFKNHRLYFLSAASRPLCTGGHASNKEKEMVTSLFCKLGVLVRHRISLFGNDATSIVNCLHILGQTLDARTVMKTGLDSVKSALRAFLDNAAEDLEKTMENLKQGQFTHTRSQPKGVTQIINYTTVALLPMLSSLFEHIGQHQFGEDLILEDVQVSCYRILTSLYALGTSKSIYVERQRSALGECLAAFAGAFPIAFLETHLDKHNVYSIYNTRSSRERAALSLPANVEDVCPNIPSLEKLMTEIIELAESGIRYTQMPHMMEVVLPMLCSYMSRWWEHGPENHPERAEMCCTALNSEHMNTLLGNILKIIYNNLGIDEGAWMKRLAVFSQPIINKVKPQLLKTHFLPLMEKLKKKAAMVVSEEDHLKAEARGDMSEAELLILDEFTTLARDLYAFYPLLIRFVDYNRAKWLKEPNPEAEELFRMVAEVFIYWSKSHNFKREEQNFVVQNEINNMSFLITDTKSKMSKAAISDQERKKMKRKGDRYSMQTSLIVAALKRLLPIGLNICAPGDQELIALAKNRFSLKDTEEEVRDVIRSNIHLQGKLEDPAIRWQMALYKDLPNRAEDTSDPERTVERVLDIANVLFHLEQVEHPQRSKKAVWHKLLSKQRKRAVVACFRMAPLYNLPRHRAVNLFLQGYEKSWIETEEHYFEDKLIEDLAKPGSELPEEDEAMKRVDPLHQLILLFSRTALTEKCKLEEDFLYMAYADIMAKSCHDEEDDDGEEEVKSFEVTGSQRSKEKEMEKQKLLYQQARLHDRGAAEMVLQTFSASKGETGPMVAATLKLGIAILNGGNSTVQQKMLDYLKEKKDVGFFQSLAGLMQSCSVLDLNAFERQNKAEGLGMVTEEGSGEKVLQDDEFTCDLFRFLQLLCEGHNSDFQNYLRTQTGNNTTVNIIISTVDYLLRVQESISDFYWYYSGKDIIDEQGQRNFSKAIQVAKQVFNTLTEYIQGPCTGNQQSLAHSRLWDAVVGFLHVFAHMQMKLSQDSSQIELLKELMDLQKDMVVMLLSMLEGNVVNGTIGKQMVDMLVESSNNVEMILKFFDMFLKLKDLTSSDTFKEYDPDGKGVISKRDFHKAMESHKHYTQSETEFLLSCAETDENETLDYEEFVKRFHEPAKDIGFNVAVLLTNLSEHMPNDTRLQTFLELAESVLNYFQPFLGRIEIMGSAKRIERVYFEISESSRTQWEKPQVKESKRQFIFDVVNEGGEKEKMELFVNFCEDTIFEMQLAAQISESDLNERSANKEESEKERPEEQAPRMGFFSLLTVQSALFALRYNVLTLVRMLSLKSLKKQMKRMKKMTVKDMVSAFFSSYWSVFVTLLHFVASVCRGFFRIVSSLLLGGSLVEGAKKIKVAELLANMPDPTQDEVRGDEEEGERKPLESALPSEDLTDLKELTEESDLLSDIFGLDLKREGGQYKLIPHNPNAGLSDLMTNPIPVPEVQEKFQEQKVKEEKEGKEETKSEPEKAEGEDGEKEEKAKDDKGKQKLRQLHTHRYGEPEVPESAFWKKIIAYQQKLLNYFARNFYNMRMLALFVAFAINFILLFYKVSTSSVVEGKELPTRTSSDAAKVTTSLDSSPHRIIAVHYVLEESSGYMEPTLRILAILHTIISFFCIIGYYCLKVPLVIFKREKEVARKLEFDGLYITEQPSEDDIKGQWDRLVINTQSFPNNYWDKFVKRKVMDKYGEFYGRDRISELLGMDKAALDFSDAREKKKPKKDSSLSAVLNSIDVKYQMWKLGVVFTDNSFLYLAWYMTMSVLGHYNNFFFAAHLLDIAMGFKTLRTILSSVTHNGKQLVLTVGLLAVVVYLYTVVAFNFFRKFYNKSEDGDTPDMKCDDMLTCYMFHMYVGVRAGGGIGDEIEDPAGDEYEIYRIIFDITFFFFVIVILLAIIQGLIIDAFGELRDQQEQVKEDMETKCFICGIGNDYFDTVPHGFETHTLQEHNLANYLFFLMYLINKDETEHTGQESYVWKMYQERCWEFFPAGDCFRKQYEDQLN

Chain of Cardiac ryanodine receptor (RyR2) in rat ventricular myocytes (rat (endogenous in ventricular myocytes)) (B0LPN4 whole entry): as above

Fluorescent calmodulin (CaM labeled with Alexa Fluor 568) (from UniProt P0DP23 1-149) (natural protein)
Kd [1]: 10 nM
Kd [2]: 12 nM

B1: Fluorescent FKBP12.6 (FK506 binding protein 12.6 labeled with Alexa Fluor 488) (natural protein)
chain: MGVEIETISPGDGRCFPKKGQTAVVHYTGMLQNGKKFDSSRDRNKPFKFRIGKQEVIKGFEEGAAQMSLGQRAKLTITPDVAYGATGHPGVIPPNATLIFDVELLNLE
modifications: Alexa Fluor 488 label (site not stated)
Kd [3]: 0.8 ± 0.1 nM

— publication PMC4004530 (Circulation research, 2013)
